Assay [1] addresses zebrafish Ngly2 (amino acids: 45-663) (zebrafish (Danio rerio)). The assay can be described thus: SEC; gel filtration at pH 4.0; elution around 150 kDa.
Assay [2] shares this target. Kind of assay: SEC; gel filtration at pH 8.0; Superdex200 increase 10/300 GL, 20 mM Tris-HCl (pH 8.0), 150 mM NaCl; elution around 150 kDa.

Regarding “zebrafish Ngly2 (amino acids: 45-663) (enzyme)”, the stoichiometry N in assay [1] and in assay [2] was 2 each time.
